Laboratory results from US20220306986A1, “NON-INVASIVE METHODS FOR SELECTIVELY ENRICHING PLURIPOTENT CELLS” (MEMORIAL SLOAN-KETTERING CANCER CENTER, priority 2019, published 2022).

B1: GCSF: granulocyte colony-stimulating factor, activates the chimeric LIF receptor transgene (protein, UniProt P09919 31-207, looked up)
Granulocyte …: TPLGPASSLPQSFLLKCLEQVRKIQGDGAALQEKLVSECATYKLCHPEELVLLGHSLGIPWAPLSSCPSQALQLAGCLSQLHSGLFLYQGLLQALEGISPELGPTLDTLQLDVADFATTIWQQMEELGMAPALQPTQGAMPAFASAFQRRAGGVLVASHLQSFLEVSYRVLRHLAQP

What was measured:
Assay type in all cases: cell-based, mouse
ESCs = assay: Colony formation assay (alkaline phosphatase staining) after pulse treatment; settings: during transient glutamine withdrawal and in the presence of exogenous glutamine; FIG. 7H, 7I
Experimental: For transient glutamine withdrawal (“pulse”) experiments, cells were initially plated in standard S/L medium as described above. The following day, cells were washed with PBS and then changed to experimental medium containing a 1:1 mix of glutamine-free DMEM and glutamine-free Neurobasal medium including 10% dialyzed FBS, 2-mercaptoethanol, LIF, and containing (“Ctrl”) or lacking (“Pulse”) L-glutamine as indicated. 24 hours later, cells were washed with PBS and then returned to glutamine-replete medium (“Recover”). 24 hours later, cells were subjected to either image analysis, flow cytometry, or plated for colony formation assays as indicated. For glutamine pulse experiments in human ESCs, cells were initially plated at a density of 300,000 cells/well in a tissue-culture treated polystyrene 12-well plate coated with vitronectin (Thermo Fisher Scientific, A14700) in E8 medium (Thermo Fisher Scientific, A1517001) containing 10 uM ROCK inhibitor Y-27632 (Selleck Chemicals S1049). 24 hrs after plating, medium was changed to modified E8 medium containing: DMEM high glucose without glutamine (Thermo Fisher 11960044), 10.7 mg/L Transferrin (Sigma T0665), 64 mg/L L-Ascorbic Acid (Sigma A890), 14 ug/L Sodium Selenite (Sigma S5261), 543 mg/L Sodium Bicarbonate (Research Products International 144558), 19.4 mg/L insulin (Sigma 19278), 100 ug/L bFGF (EMD Millipore GF003AF), 2 ug/L TGFβ1 (Peprotech 10021), and 2 mM L-glutamine. After 24 hrs of culture in modified E8 medium, medium was changed to modified E8 medium containing 2 mM or 0 mM L-glutamine for 24 hrs. All cells were then changed to modified E8 medium containing 2 mM L-glutamine and cultured for 24 hrs before harvest for analysis. […] For ESC colony formation assays, colonies were scored manually in a blinded fashion. For reprogramming experiments, alkaline-phosphatase colonies were scored automatically using ImageJ (NIH). Briefly, images of each well were binarized using the Default function and particles greater than 8 pixels with a circularity of 0.7-1.0 were counted.

JAK/STAT3 signaling = assay: Immunoblot of phospho-STAT3 and total STAT3; settings: ESCs expressing chimeric GCSF-responsive LIF receptor; FIG. 5A
Experimental: Protein lysates were extracted in 1× radioimmunoprecipitation assay buffer (Cell Signaling Technology), separated by SDS—polyacrylamide gel electrophoresis and transferred to nitrocellulose membranes (Bio-Rad). Membranes were blocked in 3% milk in Tris-buffered saline with 0.1% Tween20 (TBST) and incubated at 4° C. with primary antibodies overnight. After TBST washes the next day, membranes were incubated with horseradish peroxidase-conjugated secondary antibodies for 2 h, incubated with enhanced chemiluminescence (Thermo Fisher Scientific) and imaged with an SRX-101A X-ray Film Processor (Konica Minolta). The antibodies used (at 1:1,000 unless otherwise stated) were: Nanog (catalogue no. AF2729; R&D Systems); KLF4 (catalogue no. ab129473; Abcam), phospho-Stat3 (catalogue no. 9138; Cell Signaling Technology); Stat3 (124146, catalogue no. 9139; Cell Signaling Technology), and α-Tubulin (1:10,000, catalogue no. 79026; Sigma-Aldrich).

[1] = system: Stat3 target gene Tfcp2l1 and key transcription factors associated with naïve pluripotency; assay: qRT-PCR of STAT3-target genes and other key pluripotency genes; settings: ESCs expressing GCSF-activated LIF receptor; FIG. 5B
Experimental: RNA was isolated from six-well plates using Trizol (Invitrogen) according to manufacturer instructions. 200 ng RNA was used for cDNA synthesis using iScript (BioRad). Quantitative real-time PCR analysis was performed in technical triplicate using QuantStudio 7 Flex (Applied Biosystems) with Power SYBR Green (Life Technologies). All data were generated using cDNA from triplicate wells for each condition. Actin was used as an endogenous control for all experiments. The following primers were used: […]

[2] = system: ESCs expressing the G-CSF-activated LIF receptor transgene; assay: GC-MS isotope tracing of [U-13C]glucose or [U-13C]glutamine
Experimental: Steady state TCA cycle metabolite measurements. Cells were seeded in standard S/L medium in 6-well plates. 24 hours later, cells were washed with PBS and changed into experimental medium containing a 1:1 mix of glutamine-free DMEM and glutamine-free Neurobasal medium including 10% dialyzed FBS, 2-mercaptoethanol, LIF, and 2 mM L-glutamine. The next day, cells were washed with PBS and subjected to the same experimental medium either with or without 2 mM glutamine. 8 hours later, metabolites were extracted with 1 mL ice-cold 80% methanol containing 2 μM deuterated 2-hydroxyglutarate (D-2-hydroxyglutaric-2,3,3,4,4-d5 acid, d5-2HG) as an internal standard. After overnight incubation at −80° C., lysates were harvested and centrifuged at 21,000 g for 20 minutes to remove protein. Extracts were dried in an evaporator (Genevac EZ-2 Elite) and resuspended by incubating at 30° C. for 2 hours in 50 μL of 40 mg/mL methoxyamine hydrochloride in pyridine. Metabolites were further derivatized by addition of 80 μL of MSTFA+1% TCMS (Thermo Scientific) and 70 μl ethyl acetate (Sigma) and then incubated at 37° C. for 30 minutes. Samples were analyzed using an Agilent 7890A GC coupled to Agilent 5977C mass selective detector. The GC was operated in splitless mode with constant helium gas flow at 1 mL/min. 1 μl of derivatized metabolites was injected onto an HP-5MS column and the GC oven temperature ramped from 60° C. to 290° C. over 25 minutes. Peaks representing compounds of interest were extracted and integrated using MassHunter software (Agilent Technologies) and then normalized to both the internal standard (d5-2HG) peak area and protein content of duplicate samples as determined by BCA protein assay (Thermo Scientific). Ions used for quantification of metabolite levels are as follows: d5-2HG m/z 354; αKG, m/z 304; aspartate, m/z 334; citrate, m/z 465; fumarate, m/z 245; glutamate, m/z 363; malate, m/z 335 and succinate, m/z 247. All peaks were manually inspected and verified relative to known spectra for each metabolite.
Isotope tracing studies. For isotope tracing studies, cells were seeded in standard S/L medium in 6-well plates. 24 hours later, cells were washed with PBS and changed into experimental medium containing a 1:1 mix of glutamine-free DMEM and glutamine-free Neurobasal medium including 10% dialyzed FBS, 2-mercaptoethanol, LIF, and 2 mM L-glutamine. […] Enrichment of ^13C was assessed by quantifying the abundance of the following ions: aKG, m/z 304-318; aspartate, m/z 334-346; citrate, m/z 465-482; fumarate, m/z 245-254; glutamate, m/z 363-377 and malate, m/z 335-347. […]

| Molecule | ESC self-renewal (Nanog-GFP, colony formation) (ESCs) | JAK/STAT3 signaling (phospho-STAT3) (JAK/STAT3 signaling) | expression of Tfcp2l1 and naïve pluripotency transcription factors [1] | intracellular pools of glutamate when deprived of exogenous glutamine ([2]; [U-13C]glucose, 4 h glutamine withdrawal, FIG. 5C) | fraction of TCA cycle metabolites derived from oxidative decarboxylation of glucose-derived pyruvate (m+2 isotopologues) ([2]; [U-13C]glucose, FIG. 1B) | fraction of metabolites derived from glutamine catabolism ([2]; [U-13C]glutamine, FIG. 1D) | fraction of glutamate derived from glutamine ([2]; [U-13C]glutamine, control ESCs more than 80%, FIG. 1D) |
| --- | --- | --- | --- | --- | --- | --- | --- |
| CCOC(=O)CCNc1cc(N2CCc3ccccc3CC2)nc(-c2ccccn2)n1 [GSK-J4] | impaired ESC self-renewal | – | – | – | – | – | – |
| B1 | – | elevated and sustained JAK/STAT3 signaling | enhancing expression | able to use glucose and other anaplerotic substrates to maintain intracellular pools of glutamate | increased | decreased | 60% |
